Test [1] deals with T1, human PSGL-1 (extracellular domain) recombinant protein (SinoBiological, 13863-H08H) (human, UniProt Q14242 42-320).
T1 construct: extracellular domain; Bought protein; also called recombinant PSGL-1; hPSGL-1 extracellular domain antigen
T1 sequence (looked up): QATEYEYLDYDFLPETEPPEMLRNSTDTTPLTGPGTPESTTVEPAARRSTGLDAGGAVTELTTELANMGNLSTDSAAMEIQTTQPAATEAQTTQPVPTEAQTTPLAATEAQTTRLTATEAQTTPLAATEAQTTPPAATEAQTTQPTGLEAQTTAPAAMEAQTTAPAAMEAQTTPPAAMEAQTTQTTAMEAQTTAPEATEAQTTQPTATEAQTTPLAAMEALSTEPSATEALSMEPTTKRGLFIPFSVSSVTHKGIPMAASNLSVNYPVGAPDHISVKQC
The experiment in a line: ELISA, plate coated with recombinant PSGL-1 at high density (0.5 µg/mL), FIG. 3A. As for the experimental part:
(§1) 96-well NUNC-Immuno plates (Thermo Fisher, Cat #442404) were coated with 100 μL per well of 0.5, 0.05, or 0.03 pg/mL human PSGL-1 (extracellular domain) recombinant protein (SinoBiological, 13863-H08H) overnight at 4° C. Plates were then washed with Wash Buffer (1×PBS with 0.05% Tween 20, pH 7.4) and blocked with 0.5% (w/v) BSA-PBS for 60 min at room temperature on a plate shaker set to 300 rpm. After blocking, 100 μL of serial dilutions of 15A7H-IgM, 15A7H-IgG4, and controls at concentration range of 5000 pM-4.89 pM were added to the wells and incubated at room temperature for 1 hour. […] After 5 final washes using Wash Buffer, the plates were read out using TMB substrate (followed the instruction manual of BD OptEIA. Cat. 555214) by incubating the wells with […] each of freshly prepared TMB Working Solution for 5 min followed by the addition of sulfuric acid to stop the reaction. Finally, the data of absorbance at 450 nm (OD450 nm) were collected on an ELISA plate reader and analyzed with SoftMax using a 4-parameter logistic model.

For test [2], the target named is T1, human PSGL-1 (extracellular domain) …. Nature of the test: ELISA, plate coated with recombinant PSGL-1 at lower density (0.03 pg/mL as printed), FIG. 3C. As for the experimental part: as §1
(In general: In an ELISA, binding on a coated surface is turned into a signal by an enzyme label.)

The target is the same in test [3]. The experiment in a line: ELISA, plate coated with recombinant PSGL-1 at lower density (0.05 pg/mL as printed), FIG. 3B. The protocol:
as §1

The target in test [4] is T2, human PSGL-1 on cells (Sp2/0-hPSGL-1 transfectants; activated human primary T cells) (human, UniProt Q14242 42-412).
T2 sequence (looked up): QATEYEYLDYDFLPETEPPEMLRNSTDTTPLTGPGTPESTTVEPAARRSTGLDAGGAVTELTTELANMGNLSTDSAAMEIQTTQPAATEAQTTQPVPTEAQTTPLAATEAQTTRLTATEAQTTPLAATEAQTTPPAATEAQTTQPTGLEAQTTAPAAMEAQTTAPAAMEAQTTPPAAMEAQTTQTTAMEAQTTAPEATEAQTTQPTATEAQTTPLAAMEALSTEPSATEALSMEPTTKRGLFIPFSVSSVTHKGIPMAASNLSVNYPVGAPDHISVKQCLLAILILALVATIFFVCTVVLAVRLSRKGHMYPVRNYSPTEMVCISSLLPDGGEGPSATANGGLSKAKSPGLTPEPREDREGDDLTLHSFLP
Nature of the test: cell-based or functional assay.

B1: 15A7H-IgG4 (antibody, V domains shown)
VH: EVQLVESGGGLVQPGGSLRLSCAASGFTFSSFGMHWVRQAPGKGLEWVAYINGGSSTIFYANAVKGRFTISRDNAKNTLYLQMNSLRAEDTAVYYCARYASYGGGAMDYWGQGTLVTVSS
VL: DIQMTQSPSSLSASVGDRVTITCRSSQSIVHNDGNTYFEWYQQKPGKAPKLLIYKVSNRFSGVPSRFSGSGSGTHFTLTISSLQPEDFATYYCFQGSYVPLTFGQGTKVEIKR
notes: Bivalent IgG4 antibody described in WO 2012/174001; In some functional assays it was used with a mouse anti-human IgG Fc-gamma cross-linker (CL); also called anti-PSGL-1 bivalent mAb 15A7H; 15A7H-IgG4 + CL (when used with cross-linker)
As usually defined, the EC50 is the midpoint of the concentration-response curve. Take B1: the results for the EC50 in test [1], in test [2] and in test [3] were 0.141 nM, 0.12 nM and 0.0974 nM, respectively.

B2: 15A7H-IgM (antibody)
heavy: EVQLVESGGGLVQPGGSLRLSCAASGFTFSSFGMHWVRQAPGKGLEWVAYINGGSSTIFYANAVKGRFTISRDNAKNTLYLQMNSLRAEDTAVYYCARYASYGGGAMDYWGQGTLVTVSSGSASAPTLFPLVSCENSPSDTSSVAVGCLAQDFLPDSITFSWKYKNNSDISSTRGFPSVLRGGKYAATSQVLLPSKDVMQGTDEHVVCKVQHPNGNKEKNVPLPVIAELPPKVSVFVPPRDGFFGNPRKSKLICQATGFSPRQIQVSWLREGKQVGSGVTTDQVQAEAKESGPTTYKVTSTLTIKESDWLSQSMFTCRVDHRGLTFQQNASSMCVPDQDTAIRVFAIPPSFASIFLTKSTKLTCLVTDLTTYDSVTISWTRQNGEAVKTHTNISESHPNATFSAVGEASICEDDWNSGERFTCTVTHTDLPSPLKQTISRPKGVALHRPDVYLLPPAREQLNLRESATITCLVTGFSPADVFVQWMQRGQPLSPEKYVTSAPMPEPQAPGRYFAHSILTVSEEEWNTGETYTCVVAHEALPNRVTERTVDKSTGKPTLYNVSLVMSDTAGTCY
light: DIQMTQSPSSLSASVGDRVTITCRSSQSIVHNDGNTYFEWYQQKPGKAPKLLIYKVSNRFSGVPSRFSGSGSGTHFTLTISSLQPEDFATYYCFQGSYVPLTFGQGTKVEIKRTVAAPSVFIFPPSDEQLKSGTASVVCLLNNFYPREAKVQWKVDNALQSGNSQESVTEQDSKDSTYSLSSTLTLSKADYEKHKVYACEVTHQGLSSPVTKSFNRGEC
chain: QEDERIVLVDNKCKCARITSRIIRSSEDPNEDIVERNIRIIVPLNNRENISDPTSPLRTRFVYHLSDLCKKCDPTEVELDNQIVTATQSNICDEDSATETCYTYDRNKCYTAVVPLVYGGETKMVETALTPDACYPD
notes: also called 15A7H-IgM antibody; pentameric 15A7H-IgM
Regarding B2, the EC50 in test [1] was 0.0926 nM. In addition, in test [2], the EC50 was 0.0396 nM. For the same molecule, in test [4], the “EC50 (nM) of apoptosis of activated T cells, Donor 1” value was determined as 0.0177 nM; the “EC50 (nM) of apoptosis of activated T cells, Donor 2” value worked out at 0.0152 nM; the “EC50 (nM) of apoptosis of activated T cells, Donor 3” value is 0.0096 nM; the “EC50 (µg/mL) of apoptosis of activated T cells, Donor 1” value was 0.0156 µg/mL. Moreover, in test [4], the “EC50 (µg/mL) of apoptosis of activated T cells, Donor 2” value amounted to 0.0134 µg/mL and the “EC50 (µg/mL) of apoptosis of activated T cells, Donor 3” value was found to be 0.00844 µg/mL. Further, in test [3], the EC50 is 0.0459 nM.

The record behind these values is patent publication US20260250411A1 (ALTRUBIO, published 2026).
